The values below come from US20240400618A1 (GRIFOLS DIAGNOSTIC SOLUTIONS, published 2024).

Like-named read-outs stand apart in the source and are kept apart here.

The target in assay [1] is T1, pxENB17-RBD-His (SARS-CoV-2, UniProt P0DTC2 319-541).
Assay [2] has as its target T2, pxENB9-FLS-CT-His (SARS-CoV-2, UniProt P0DTC2 15-1213).
The target in assay [3] is T2, pxENB9-FLS-CT-His. The source holds these as a separate data set.
Assay [4] deals with T1, pxENB17-RBD-His. The source holds these as a separate data set.
The target of assay [5] is T1, pxENB17-RBD-His. The assay can be described thus: BLI (Octet), ACE2 construct loaded on SA tips by its tag, RBD as analyte.

B1: pxENBCP23_hACE2_3A-mIgG(23) (Fc fusion)
chain: QSTIEEQAKTFLDKFNHEAEDLFYQSSLASWNYNTNITEENVQNMNNAGDKWSAFLKEQSTLAQMYPLQEIQNLTVKLQLQALQQNGSSVLSEDKSKRLNTILNTMSTIYSTGKVCNPDAPAECLLLEPGLNEIMANSLDYNERLWAWESWRSEVGKALRPLYEEYVVLKNEMARANHYEDYGDYWRGDYEVNGVDGYDYSRGQLIEDVEHTFEEIKPLYEHLHAYVRAKLMNAYPSYISPIGCLPAHLLGDMWGRFWTNLYSLTVPFGQKPNIDVTDAMVDQAWDAQRIFKEAEKFFVSVGLPNMTQGFWENSMLTDPGNVQKAVCHPTAWDLGKGDFRILMCTKVTMDDFLTAHHEMGHIQYDMAYAAQPFLLRNGANEGFHEAVGEIMSLSAATPKHLKSIGLLSPDFQEDNETEINFLLKQALTIVGTLPFTYMLEKWRWMVFKGEIPKDQWMKKWWEMKREIVGVVEPVPHDETYCDPASLFHVSNDYSFIRYYTRTLYQFQFQEALCQAAKHEGPLHKCDISNSTEAGQKLFNMLRLGKSEPWTLALENVVGAKNMNVRPLLNYFEPLFTWLKDQNKNSFVGWSTDWSPYADVPEVSSVFIFPPKPKDVLTITLTPKVTCVVVDISKDDPEVQFSWFVDDVEVHTAQTQPREEQFNSTFRSVSELPIMHQDWLNGKEFKCRVNSAAFPAPIEKTISKTKGRPKAPQVYTIPPPKEQMAKDKVSLTCMITDFFPEDITVEWQWNGQPAENYKNTQPIMNTNGSYFVYSKLNVQKSNWEAGNTFTCSVLHEGLHNHHTEKSLSHSPGK
For B1, the results for the Kd in the assay with pxENB17-RBD-His [1] and with pxENB9-FLS-CT-His [2] were 24.5 nM and 38.7 nM, respectively.

B2: pxEBNCP18_hACE2-AAA_p53 (receptor)
chain: QSTIEEQAKTFLDKFNHEAEDLFYQSSLASWNYNTNITEENVQNMNNAGDKWSAFLKEQSTLAQMYPLQEIQNLTVKLQLQALQQNGSSVLSEDKSKRLNTILNTMSTIYSTGKVCNPDAPAECLLLEPGLNEIMANSLDYNERLWAWESWRSEVGKALRPLYEEYVVLKNEMARANHYEDYGDYWRGDYEVNGVDGYDYSRGQLIEDVEHTFEEIKPLYEHLHAYVRAKLMNAYPSYISPIGCLPAHLLGDMWGRFWTNLYSLTVPFGQKPNIDVTDAMVDQAWDAQRIFKEAEKFFVSVGLPNMTQGFWENSMLTDPGNVQKAVCHPTAWDLGKGDFRILMCTKVTMDDFLTAHHEMGHIQYDMAYAAQPFLLRNGANEGFHEAVGEIMSLSAATPKHLKSIGLLSPDFQEDNETEINFLLKQALTIVGTLPFTYMLEKWRWMVFKGEIPKDQWMKKWWEMKREIVGVVEPVPHDETYCDPASLFHVSNDYSFIRYYTRTLYQFQFQEALCQAAKHEGPLHKCDISNSTEAGQKLFNMLRLGKSEPWTLALENVVGAKNMNVRPLLNYFEPLFTWLKDQNKNSFVGWSTDWSPYADGGGSKPLDGEYFTLQIRGRERFEMFRELNEALELKDAQAGKEPG
With B2, the Kd with pxENB17-RBD-His [1] and with pxENB9-FLS-CT-His [2] was 0.001 nM in each case.

B3: pxEBNCP22_hACE2_3A-mIgG(h23) (Fc fusion)
chain: QSTIEEQAKTFLDKFNHEAEDLFYQSSLASWNYNTNITEENVQNMNNAGDKWSAFLKEQSTLAQMYPLQEIQNLTVKLQLQALQQNGSSVLSEDKSKRLNTILNTMSTIYSTGKVCNPDAPAECLLLEPGLNEIMANSLDYNERLWAWESWRSEVGKALRPLYEEYVVLKNEMARANHYEDYGDYWRGDYEVNGVDGYDYSRGQLIEDVEHTFEEIKPLYEHLHAYVRAKLMNAYPSYISPIGCLPAHLLGDMWGRFWTNLYSLTVPFGQKPNIDVTDAMVDQAWDAQRIFKEAEKFFVSVGLPNMTQGFWENSMLTDPGNVQKAVCHPTAWDLGKGDFRILMCTKVTMDDFLTAHHEMGHIQYDMAYAAQPFLLRNGANEGFHEAVGEIMSLSAATPKHLKSIGLLSPDFQEDNETEINFLLKQALTIVGTLPFTYMLEKWRWMVFKGEIPKDQWMKKWWEMKREIVGVVEPVPHDETYCDPASLFHVSNDYSFIRYYTRTLYQFQFQEALCQAAKHEGPLHKCDISNSTEAGQKLFNMLRLGKSEPWTLALENVVGAKNMNVRPLLNYFEPLFTWLKDQNKNSFVGWSTDWSPYADVPRDCGCKPCICTVPEVSSVFIFPPKPKDVLTITLTPKVTCVVVDISKDDPEVQFSWFVDDVEVHTAQTQPREEQFNSTFRSVSELPIMHQDWLNGKEFKCRVNSAAFPAPIEKTISKTKGRPKAPQVYTIPPPKEQMAKDKVSLTCMITDFFPEDITVEWQWNGQPAENYKNTQPIMNTNGSYFVYSKLNVQKSNWEAGNTFTCSVLHEGLHNHHTEKSLSHSPGK
For B3, the Kd with pxENB17-RBD-His [1] is 0.953 nM; with pxENB9-FLS-CT-His [2] it was 0.001 nM.

B4: pxEBNCP15_hACE2-AAA-StrepTagII (receptor)
chain: QSTIEEQAKTFLDKFNHEAEDLFYQSSLASWNYNTNITEENVQNMNNAGDKWSAFLKEQSTLAQMYPLQEIQNLTVKLQLQALQQNGSSVLSEDKSKRLNTILNTMSTIYSTGKVCNPDAPAECLLLEPGLNEIMANSLDYNERLWAWESWRSEVGKALRPLYEEYVVLKNEMARANHYEDYGDYWRGDYEVNGVDGYDYSRGQLIEDVEHTFEEIKPLYEHLHAYVRAKLMNAYPSYISPIGCLPAHLLGDMWGRFWTNLYSLTVPFGQKPNIDVTDAMVDQAWDAQRIFKEAEKFFVSVGLPNMTQGFWENSMLTDPGNVQKAVCHPTAWDLGKGDFRILMCTKVTMDDFLTAHHEMGHIQYDMAYAAQPFLLRNGANEGFHEAVGEIMSLSAATPKHLKSIGLLSPDFQEDNETEINFLLKQALTIVGTLPFTYMLEKWRWMVFKGEIPKDQWMKKWWEMKREIVGVVEPVPHDETYCDPASLFHVSNDYSFIRYYTRTLYQFQFQEALCQAAKHEGPLHKCDISNSTEAGQKLFNMLRLGKSEPWTLALENVVGAKNMNVRPLLNYFEPLFTWLKDQNKNSFVGWSTDWSPYADGGSGWSHPQFEK
Take B4: the Kd was found to be 4710 nM in the assay with pxENB9-FLS-CT-His [3] and 110 nM with pxENB17-RBD-His [4]. In the assay with pxENB17-RBD-His [5], the “Response, shift in Wavelength (nm)” value was 0.0062 nm.

B5: pxEBNCP9_hIL2-hACE2(18-615) (receptor)
chain: QSTIEEQAKTFLDKFNHEAEDLFYQSSLASWNYNTNITEENVQNMNNAGDKWSAFLKEQSTLAQMYPLQEIQNLTVKLQLQALQQNGSSVLSEDKSKRLNTILNTMSTIYSTGKVCNPDAPAECLLLEPGLNEIMANSLDYNERLWAWESWRSEVGKALRPLYEEYVVLKNEMARANHYEDYGDYWRGDYEVNGVDGYDYSRGQLIEDVEHTFEEIKPLYEHLHAYVRAKLMNAYPSYISPIGCLPAHLLGDMWGRFWTNLYSLTVPFGQKPNIDVTDAMVDQAWDAQRIFKEAEKFFVSVGLPNMTQGFWENSMLTDPGNVQKAVCHPTAWDLGKGDFRILMCTKVTMDDFLTAHHEMGHIQYDMAYAAQPFLLRNGANEGFHEAVGEIMSLSAATPKHLKSIGLLSPDFQEDNETEINFLLKQALTIVGTLPFTYMLEKWRWMVFKGEIPKDQWMKKWWEMKREIVGVVEPVPHDETYCDPASLFHVSNDYSFIRYYTRTLYQFQFQEALCQAAKHEGPLHKCDISNSTEAGQKLFNMLRLGKSEPWTLALENVVGAKNMNVRPLLNYFEPLFTWLKDQNKNSFVGWSTDWSPYAD
Regarding B5, binding in the assay with pxENB17-RBD-His [1] was characterised by a dissociation constant (Kd) of 45.1 nM.

B6: pxEBNCP25_hACE2-AAA(1-615) (receptor)
chain: QSTIEEQAKTFLDKFNHEAEDLFYQSSLASWNYNTNITEENVQNMNNAGDKWSAFLKEQSTLAQMYPLQEIQNLTVKLQLQALQQNGSSVLSEDKSKRLNTILNTMSTIYSTGKVCNPDAPAECLLLEPGLNEIMANSLDYNERLWAWESWRSEVGKALRPLYEEYVVLKNEMARANHYEDYGDYWRGDYEVNGVDGYDYSRGQLIEDVEHTFEEIKPLYEHLHAYVRAKLMNAYPSYISPIGCLPAHLLGDMWGRFWTNLYSLTVPFGQKPNIDVTDAMVDQAWDAQRIFKEAEKFFVSVGLPNMTQGFWENSMLTDPGNVQKAVCHPTAWDLGKGDFRILMCTKVTMDDFLTAHHEMGHIQYDMAYAAQPFLLRNGANEGFHEAVGEIMSLSAATPKHLKSIGLLSPDFQEDNETEINFLLKQALTIVGTLPFTYMLEKWRWMVFKGEIPKDQWMKKWWEMKREIVGVVEPVPHDETYCDPASLFHVSNDYSFIRYYTRTLYQFQFQEALCQAAKHEGPLHKCDISNSTEAGQKLFNMLRLGKSEPWTLALENVVGAKNMNVRPLLNYFEPLFTWLKDQNKNSFVGWSTDWSPYAD
As for B6, binding with pxENB17-RBD-His [1] was put at a Kd of 73.3 nM.

B7: pxEBNCP19_mIgGHC_hACE2-3A (receptor)
chain: QSTIEEQAKTFLDKFNHEAEDLFYQSSLASWNYNTNITEENVQNMNNAGDKWSAFLKEQSTLAQMYPLQEIQNLTVKLQLQALQQNGSSVLSEDKSKRLNTILNTMSTIYSTGKVCNPDAPAECLLLEPGLNEIMANSLDYNERLWAWESWRSEVGKALRPLYEEYVVLKNEMARANHYEDYGDYWRGDYEVNGVDGYDYSRGQLIEDVEHTFEEIKPLYEHLHAYVRAKLMNAYPSYISPIGCLPAHLLGDMWGRFWTNLYSLTVPFGQKPNIDVTDAMVDQAWDAQRIFKEAEKFFVSVGLPNMTQGFWENSMLTDPGNVQKAVCHPTAWDLGKGDFRILMCTKVTMDDFLTAHHEMGHIQYDMAYAAQPFLLRNGANEGFHEAVGEIMSLSAATPKHLKSIGLLSPDFQEDNETEINFLLKQALTIVGTLPFTYMLEKWRWMVFKGEIPKDQWMKKWWEMKREIVGVVEPVPHDETYCDPASLFHVSNDYSFIRYYTRTLYQFQFQEALCQAAKHEGPLHKCDISNSTEAGQKLFNMLRLGKSEPWTLALENVVGAKNMNVRPLLNYFEPLFTWLKDQNKNSFVGWSTDWSPYAD
In the assay with pxENB17-RBD-His [1], B7 returned an equilibrium dissociation constant (Kd) of 56.2 nM.

B8: pxEBNCP10_tPa-hACE2(18-615)-AAA (receptor)
chain: QSTIEEQAKTFLDKFNHEAEDLFYQSSLASWNYNTNITEENVQNMNNAGDKWSAFLKEQSTLAQMYPLQEIQNLTVKLQLQALQQNGSSVLSEDKSKRLNTILNTMSTIYSTGKVCNPDAPAECLLLEPGLNEIMANSLDYNERLWAWESWRSEVGKALRPLYEEYVVLKNEMARANHYEDYGDYWRGDYEVNGVDGYDYSRGQLIEDVEHTFEEIKPLYEHLHAYVRAKLMNAYPSYISPIGCLPAHLLGDMWGRFWTNLYSLTVPFGQKPNIDVTDAMVDQAWDAQRIFKEAEKFFVSVGLPNMTQGFWENSMLTDPGNVQKAVCHPTAWDLGKGDFRILMCTKVTMDDFLTAHHEMGHIQYDMAYAAQPFLLRNGANEGFHEAVGEIMSLSAATPKHLKSIGLLSPDFQEDNETEINFLLKQALTIVGTLPFTYMLEKWRWMVFKGEIPKDQWMKKWWEMKREIVGVVEPVPHDETYCDPASLFHVSNDYSFIRYYTRTLYQFQFQEALCQAAKHEGPLHKCDISNSTEAGQKLFNMLRLGKSEPWTLALENVVGAKNMNVRPLLNYFEPLFTWLKDQNKNSFVGWSTDWSPYAD
For the molecule B8, in the assay with pxENB17-RBD-His [1], the Kd worked out at 60.8 nM.
